± gives the uncertainty stated by the source.
B1: POU domain, class 4, transcription factor 2, residues 256 to 327; numbered along this chain, Q12837 (parent)
chain: RDLEAFAERFKQRRIKLGVTQADVGSALANLKIPGVGSLSQSTICRFESLTLSHNNMIALKPILQAWLEEAE

Variants of: B1
Test: abundance fitness (aPCA) (normalised: wild type 0, dead -1); higher = more abundant; growth selection in yeast, the domain comes from the species named
Settings: Homo sapiens

| Variant | abundance fitness |
| --- | --- |
| RDLEAFAERFKQRRIKLGVTQADVGSALANLKIPWVGSLSQSTICRFESLTLSHNNMIALKPILQAWLEEAE [G35W] | -0.525 ± 0.23 |
| RDLEAFAERFKQRRIKLGVTQADVGSALANLKIPSVGSLSQSTICRFESLTLSHNNMIALKPILQAWLEEAE [G35S] | -0.228 ± 0.082 |
| RDLEAFAERFKQRRIKLGVTQADVGSALANLKIPLVGSLSQSTICRFESLTLSHNNMIALKPILQAWLEEAE [G35L] | -0.329 ± 0.076 |
| RDLEAFAERFKQRRIKLGVTQADVGSALANLKIPEVGSLSQSTICRFESLTLSHNNMIALKPILQAWLEEAE [G35E] | -0.435 ± 0.19 |
| RDLEAFAERFKQRRIKLGVTQADVGSALANLKIPHVGSLSQSTICRFESLTLSHNNMIALKPILQAWLEEAE [G35H] | -0.528 ± 0.18 |
| RDLEAFAERFKQRRIKLGVTQADVGSALANLKIPFVGSLSQSTICRFESLTLSHNNMIALKPILQAWLEEAE [G35F] | -0.084 ± 0.44 |
| RDLEAFAERFKQRRIKLGVTQADVGSALANLKIPGEGSLSQSTICRFESLTLSHNNMIALKPILQAWLEEAE [V36E] | -0.139 ± 0.12 |
| RDLEAFAERFKQRRIKLGVTQADVGSALANLKIPGLGSLSQSTICRFESLTLSHNNMIALKPILQAWLEEAE [V36L] | 0.061 ± 0.046 |
| RDLEAFAERFKQRRIKLGVTQADVGSALANLKIPGRGSLSQSTICRFESLTLSHNNMIALKPILQAWLEEAE [V36R] | -0.617 ± 0.071 |
| RDLEAFAERFKQRRIKLGVTQADVGSALANLKIPGDGSLSQSTICRFESLTLSHNNMIALKPILQAWLEEAE [V36D] | -0.278 ± 0.21 |
| RDLEAFAERFKQRRIKLGVTQADVGSALANLKIPGIGSLSQSTICRFESLTLSHNNMIALKPILQAWLEEAE [V36I] | 0.166 ± 0.17 |
| RDLEAFAERFKQRRIKLGVTQADVGSALANLKIPGSGSLSQSTICRFESLTLSHNNMIALKPILQAWLEEAE [V36S] | -0.186 ± 0.071 |
| RDLEAFAERFKQRRIKLGVTQADVGSALANLKIPGMGSLSQSTICRFESLTLSHNNMIALKPILQAWLEEAE [V36M] | -0.203 ± 0.11 |
| RDLEAFAERFKQRRIKLGVTQADVGSALANLKIPGQGSLSQSTICRFESLTLSHNNMIALKPILQAWLEEAE [V36Q] | -0.147 ± 0.072 |
| RDLEAFAERFKQRRIKLGVTQADVGSALANLKIPGCGSLSQSTICRFESLTLSHNNMIALKPILQAWLEEAE [V36C] | -0.4 ± 0.15 |
| RDLEAFAERFKQRRIKLGVTQADVGSALANLKIPGYGSLSQSTICRFESLTLSHNNMIALKPILQAWLEEAE [V36Y] | -0.047 ± 0.25 |
| RDLEAFAERFKQRRIKLGVTQADVGSALANLKIPGNGSLSQSTICRFESLTLSHNNMIALKPILQAWLEEAE [V36N] | -0.387 ± 0.19 |
| RDLEAFAERFKQRRIKLGVTQADVGSALANLKIPGAGSLSQSTICRFESLTLSHNNMIALKPILQAWLEEAE [V36A] | -0.18 ± 0.085 |
| RDLEAFAERFKQRRIKLGVTQADVGSALANLKIPGKGSLSQSTICRFESLTLSHNNMIALKPILQAWLEEAE [V36K] | -0.532 ± 0.14 |

| Variant | abundance fitness |
| --- | --- |
| RDLEAFAERFKQRRIKLGVTQADVGSALANLKIPGFGSLSQSTICRFESLTLSHNNMIALKPILQAWLEEAE [V36F] | -0.176 ± 0.18 |
| RDLEAFAERFKQRRIKLGVTQADVGSALANLKIPGTGSLSQSTICRFESLTLSHNNMIALKPILQAWLEEAE [V36T] | -0.417 ± 0.09 |
| RDLEAFAERFKQRRIKLGVTQADVGSALANLKIPGHGSLSQSTICRFESLTLSHNNMIALKPILQAWLEEAE [V36H] | -0.267 ± 0.19 |
| RDLEAFAERFKQRRIKLGVTQADVGSALANLKIPGVGQLSQSTICRFESLTLSHNNMIALKPILQAWLEEAE [S38Q] | -0.051 ± 0.12 |
| RDLEAFAERFKQRRIKLGVTQADVGSALANLKIPGVGWLSQSTICRFESLTLSHNNMIALKPILQAWLEEAE [S38W] | -0.209 ± 0.093 |
| RDLEAFAERFKQRRIKLGVTQADVGSALANLKIPGVGDLSQSTICRFESLTLSHNNMIALKPILQAWLEEAE [S38D] | -0.277 ± 0.12 |
| RDLEAFAERFKQRRIKLGVTQADVGSALANLKIPGVGHLSQSTICRFESLTLSHNNMIALKPILQAWLEEAE [S38H] | 0.104 ± 0.12 |
| RDLEAFAERFKQRRIKLGVTQADVGSALANLKIPGVGCLSQSTICRFESLTLSHNNMIALKPILQAWLEEAE [S38C] | -0.092 ± 0.077 |
| RDLEAFAERFKQRRIKLGVTQADVGSALANLKIPGVGVLSQSTICRFESLTLSHNNMIALKPILQAWLEEAE [S38V] | -0.159 ± 0.069 |
| RDLEAFAERFKQRRIKLGVTQADVGSALANLKIPGVGELSQSTICRFESLTLSHNNMIALKPILQAWLEEAE [S38E] | -0.127 ± 0.13 |
| RDLEAFAERFKQRRIKLGVTQADVGSALANLKIPGVGLLSQSTICRFESLTLSHNNMIALKPILQAWLEEAE [S38L] | -0.045 ± 0.055 |
| RDLEAFAERFKQRRIKLGVTQADVGSALANLKIPGVGRLSQSTICRFESLTLSHNNMIALKPILQAWLEEAE [S38R] | -0.022 ± 0.045 |
| RDLEAFAERFKQRRIKLGVTQADVGSALANLKIPGVGYLSQSTICRFESLTLSHNNMIALKPILQAWLEEAE [S38Y] | 0.026 ± 0.032 |
| RDLEAFAERFKQRRIKLGVTQADVGSALANLKIPGVGKLSQSTICRFESLTLSHNNMIALKPILQAWLEEAE [S38K] | -0.127 ± 0.082 |
| RDLEAFAERFKQRRIKLGVTQADVGSALANLKIPGVGNLSQSTICRFESLTLSHNNMIALKPILQAWLEEAE [S38N] | 0.133 ± 0.11 |
| RDLEAFAERFKQRRIKLGVTQADVGSALANLKIPGVGALSQSTICRFESLTLSHNNMIALKPILQAWLEEAE [S38A] | -0.013 ± 0.046 |
| RDLEAFAERFKQRRIKLGVTQADVGSALANLKIPGVGGLSQSTICRFESLTLSHNNMIALKPILQAWLEEAE [S38G] | -0.091 ± 0.049 |
| RDLEAFAERFKQRRIKLGVTQADVGSALANLKIPGVGTLSQSTICRFESLTLSHNNMIALKPILQAWLEEAE [S38T] | -0.083 ± 0.082 |
| RDLEAFAERFKQRRIKLGVTQADVGSALANLKIPGVGILSQSTICRFESLTLSHNNMIALKPILQAWLEEAE [S38I] | -0.146 ± 0.14 |

— the Human Domainome abundance scans (Beltran et al. 2025)
